Our source for the Kd values is PMC11680790 (2024).

Assay [1] deals with T1, NXE’992, chimeric peptide (pyrazole-QRPRL[AIB]S[PipALA]VPFP) (UniProt Q9ULZ1, pyrazole on the N-terminus; AIB at position 6; PipALA at position 8). Briefly: SPR; pH 6.0. On the technique in general: SPR reads the build-up and loss of mass on a sensor chip optically.
Assay [2] concerns the target T1, NXE’992, chimeric peptide …. Briefly: SPR; pH 7.5.

B1: human apelin stabilised receptor (NxStaR) (receptor)
chain: MEEGGDFDNYYGADNQSECEYTDWKSSGALIPAIYMLVFLLGTTGNGLVLWTVFRSSREKRRSADIFIASLAVADLTFVVTLPLWAVYTYRDYDWPFGTFFCKLSSYLIFVAMYASVFCLTGLSFDRYLAIVRPVANARLRLRVSGAVATAVLWVLAALLAMPVMVLRTTGDLENTTKVQCYMDYSMVATVSSEWAWEVGLGVSSTMVGFVVPLTIMLTCYFFAAQTIAGHFRKERIEGLRKRRRLLSIIVVLVVTFALCWMPYHLVKTLYMLGSLLHWPCDFDLFLMNIFPYCTCIAYVNSCLNPFLYAFFDPRFRQACTSMLCCGQSRCAGTSHSSSGEKSASYSSGHSQGPGPNMGKGGEQMHEKSIPYSQETLVVD
In general, Kd refers to the equilibrium constant for the complex coming apart. On to B1, for which the results for the Kd in assay [1] and in assay [2] were 21 nM and 3.3 nM, respectively.
